Results on 21 sequences are retold here after the supplement of paper PMC9170038.

This data set has as its system K4 kissing-loop RNA reporter. The data set can be described thus: apparent KD of K4 kissing-loop reporter; higher = weaker reporter binding. The note with it: Eterna round: R107. On the procedure:
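RNA-MaP round R107: designed RNA switches with theophylline, tryptophan, arginine or FMN aptamers are transcribed on-chip within common flanks. They are titrated with a labelled K4 kissing-loop RNA reporter in RNA-MaP buffer (100 mM Tris pH 7.5, 80 mM KCl, 4 mM MgCl2), without ligand or with the indicated ligand. Median apparent KD per design.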

[1] abbreviates: input ligand: theophylline 20 uM.
[2] abbreviates: input ligand: tryptophan 2.4 mM.
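Further: bound reporter read as fluorescence of individual clusters on recovered sequencing chips by microscopy, with normalized cluster intensities fitted with a binding model.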

Regarding “AAGUAGCUCUCGGCCGCCACUCCUCAGUGAUGUUGAGAUAUUAAGAGCCAAUUGGCUCAUAUAAAGAGGACCGGGAGAGCUACAA [AK4 SS Tryptophan B]”, the “apparent KD of K4 kissing-loop reporter” value runs as follows: (input ligand: FMN 200 uM) 248 nM; (input ligand: arginine 13.2 mM) 276 nM; (input ligand: none) 357 nM; under setting [1], 282 nM; under setting [2], 128 nM.

For “UAAAACGCUUGAAUAACAAGCGAAAAUUCGCGAGGACCGGUACGGCCGCCACUCGCUAACUGCGAGUGAUGUUCGAUAAUAAAAU [Mat - Mod of OpenEnded 3 - D4]”, the “apparent KD of K4 kissing-loop reporter” value by setting is: (input ligand: FMN 200 uM) 149 nM; (input ligand: arginine 13.2 mM) 70.1 nM; (input ligand: none) 158 nM; under setting [1], 188 nM; under setting [2], 95.5 nM.

Consider “GCAUGCAUGGCAGGAUAUAAUCUGGAGUGAUGUUCCUUUAACCUUUCGAACGGCGAGCCAGGUUGAUUAGAAGGGCCAUGCAUGC”, for which the “apparent KD of K4 kissing-loop reporter” value reads like this: (input ligand: FMN 200 uM) 435 nM; (input ligand: arginine 13.2 mM) 476 nM; (input ligand: none) 622 nM; under setting [1], 628 nM; under setting [2], 530 nM.

As to “AAUUUAUAUUUGUUCUUCAAAUGUUCAGAAGGAGCGUGAAUUAUCACAGGUAGGUCGCUGGGCUAGUGAUGUUGGCUAUAUACUA [whbob_Ex_Arginine_A_2t126]”, the “apparent KD of K4 kissing-loop reporter” value reads like this: (input ligand: FMN 200 uM) 168 nM; (input ligand: arginine 13.2 mM) 195 nM; (input ligand: none) 195 nM; under setting [1], 211 nM; under setting [2], 137 nM.

Consider “UUUUGGUACUGAGGAUAUUCGAAGAAAUAUAGUGAUGUUAUAUAAGGAGGAGGAGGGAGGGAGGAAGGAGAAGGCAGAAGAGGAG [ExFMNB.G]”, for which the “apparent KD of K4 kissing-loop reporter” value by setting is: (input ligand: FMN 200 uM) 289 nM; (input ligand: arginine 13.2 mM) 163 nM; (input ligand: none) 235 nM; under setting [1], 225 nM; under setting [2], 266 nM.

For “UUCGUAGUAGGAAACUAUUACGAAAAGGAAGGAGCGGCGAAGAAGCCAGGUAGGUCGCCUAUUGACAGUGAUGUUGUUAUAUAGA [#10]”, the “apparent KD of K4 kissing-loop reporter” value (input ligand: FMN 200 uM) was 144 nM; the “apparent KD of K4 kissing-loop reporter” value (input ligand: arginine 13.2 mM) stood at 239 nM; the “apparent KD of K4 kissing-loop reporter” value (input ligand: none) stood at 176 nM; the “apparent KD of K4 kissing-loop reporter” value under setting [1] was determined as 205 nM; the “apparent KD of K4 kissing-loop reporter” value under setting [2] stood at 162 nM.

Turning to “UCUGGAGUAUAUGAUACCAGCAGUGAGAGACAGGAAGUAUAGUGAUGUUAUAUGAGAGAAUGCCCUUGGCAGCGUGUGCGGUGGG [SSTheophylB.R]”, the “apparent KD of K4 kissing-loop reporter” value is 94.3 nM (input ligand: FMN 200 uM); 85 nM (input ligand: arginine 13.2 mM); 71.1 nM (input ligand: none); 106 nM under setting [1]; 62.7 nM under setting [2].

Turning to “ACCUACGAUCACGAAAGUGAUUGUAGGAUCUAGGAUAUGCUGAAGAGCAGAAGGAGAGUGAUGUUCUCAUCUCACGAAAGUGAGA [whbob_Ex_FMNA__2th190]”, the “apparent KD of K4 kissing-loop reporter” value (input ligand: FMN 200 uM) was determined as 437 nM; the “apparent KD of K4 kissing-loop reporter” value (input ligand: arginine 13.2 mM) amounted to 206 nM; the “apparent KD of K4 kissing-loop reporter” value (input ligand: none) is 217 nM; the “apparent KD of K4 kissing-loop reporter” value under setting [1] was determined as 245 nM; the “apparent KD of K4 kissing-loop reporter” value under setting [2] was determined as 221 nM.

As for “UGUCUUCAGUGAUGUUGAUGACAACACUUAAAGGAUAUGCGAGAGAGCAGAAGGUUAAACAACGCGCAAAUCAAGGAGGGUCUAG [theeternabot_exclusion_KL_FMN_A_30]”, the “apparent KD of K4 kissing-loop reporter” value reads like this: (input ligand: FMN 200 uM) 193 nM; (input ligand: arginine 13.2 mM) 161 nM; (input ligand: none) 178 nM; under setting [1], 196 nM; under setting [2], 174 nM.

Regarding “AUGCGCGUGCGAUGUAAAUCGCACGCGCAUCGAGGACCGGUACGGCCGCCACUCGCUCGCGCCGAGUGAUGUUCGGCCGGCGAAC [#2 Same State - Tryptophan A Attempt #5 (HarryS)]”, the “apparent KD of K4 kissing-loop reporter” value reads like this: (input ligand: FMN 200 uM) 442 nM; (input ligand: arginine 13.2 mM) 278 nM; (input ligand: none) 527 nM; under setting [1], 454 nM; under setting [2], 476 nM.

Consider “UGAUUGGCGAAAGUAGUGAUGUUACGAACAUAGGAUAUUAGAGGAAUAAGAAGGAUGAAUGAGAAAGGAAUAAAUUGUUGGUUGG [#08 K4 FMN A Same State]”, for which the “apparent KD of K4 kissing-loop reporter” value by setting is: (input ligand: FMN 200 uM) 139 nM; (input ligand: arginine 13.2 mM) 64 nM; (input ligand: none) 165 nM; under setting [1], 193 nM; under setting [2], 102 nM.

On to “GGGCGCGGCGCGGCCGCCACUGGGCCUGGGCGCGCGCCGAGUGAUGUUCGCCUGCGGCUGGGUCGUAGGACCGGGUGCCGGCUGG [BDazzled 1]”, for which the “apparent KD of K4 kissing-loop reporter” value (input ligand: FMN 200 uM) is 422 nM; the “apparent KD of K4 kissing-loop reporter” value (input ligand: arginine 13.2 mM) came to 202 nM; the “apparent KD of K4 kissing-loop reporter” value (input ligand: none) worked out at 311 nM; the “apparent KD of K4 kissing-loop reporter” value under setting [1] was 376 nM; the “apparent KD of K4 kissing-loop reporter” value under setting [2] was 188 nM.

In the case of “UGAUUGCCAGUGAUGUUGGCAGUGACUGAAGGAGCGCGUGAAAACGCAGGUAGGUCGCAGUUGAGUGCCAAUUGAUCGAAAGAUC [KL-XArg-A5]”, the “apparent KD of K4 kissing-loop reporter” value was determined as 286 nM (input ligand: FMN 200 uM); 275 nM (input ligand: arginine 13.2 mM); 244 nM (input ligand: none); 328 nM under setting [1]; 249 nM under setting [2].

In the case of “AAUUCAGCUAGUGAUGUUAGCGUAGAGUGCAAGGAUAUCCCUGUCAGGAGAAGGUGCGUAGAACGUUUGCCAUCAGAUUGUCCCA [theeternabot_exclusion_KL_FMN_A_48]”, the “apparent KD of K4 kissing-loop reporter” value reads like this: (input ligand: FMN 200 uM) 176 nM; (input ligand: arginine 13.2 mM) 97.2 nM; (input ligand: none) 118 nM; under setting [1], 104 nM; under setting [2], 109 nM.

With “UGUAUGUGAUUUGAUACCAGACCAGCUGGAGGAAUCUGAGUGAUGUUCAGGUAGGUUUGGGUCCCUUGGCAGCAAAUCGCAUACU [KL-SSTheoB17]”, the “apparent KD of K4 kissing-loop reporter” value reads like this: (input ligand: FMN 200 uM) 251 nM; (input ligand: arginine 13.2 mM) 196 nM; (input ligand: none) 236 nM; under setting [1], 192 nM; under setting [2], 209 nM.

For the sequence “UUGGCAGUGAUGUUGCCAGAGUUCACCGAAGGAGCGGGUGAAAACCCAGGUAGGUCGCGGUAGCGGAGUGAUUCUCCGCGAGGGC [Same State Arginine A GF 22]”, the “apparent KD of K4 kissing-loop reporter” value reads like this: (input ligand: FMN 200 uM) 90.5 nM; (input ligand: arginine 13.2 mM) 91 nM; (input ligand: none) 86.2 nM; under setting [1], 93.7 nM; under setting [2], 91.4 nM.

Consider “UAUAUAGUGAUGUUAUAUAUACAUUCGGAAGGAGCGUGGUAAAACACAGGUAGGUCGCUGAAAUAAUUAAAAUAAUUUUCUUUUU [AstrosSSArgA#1]”, for which the “apparent KD of K4 kissing-loop reporter” value (input ligand: FMN 200 uM) was 255 nM; the “apparent KD of K4 kissing-loop reporter” value (input ligand: arginine 13.2 mM) was 231 nM; the “apparent KD of K4 kissing-loop reporter” value (input ligand: none) worked out at 279 nM; the “apparent KD of K4 kissing-loop reporter” value under setting [1] is 239 nM; the “apparent KD of K4 kissing-loop reporter” value under setting [2] is 231 nM.

In the case of “UGACUGGAUGGAAGGAGCGCUAAACUCCUAGUGAUGUUAGGGAUAUGAGGCAAAGCCUCGAAGCAGGUAGGUCGCCAUCUAGUCU [FiskerMod 20 - Jieux - Same State - Arginine B]”, the “apparent KD of K4 kissing-loop reporter” value reads like this: (input ligand: FMN 200 uM) 159 nM; (input ligand: arginine 13.2 mM) 114 nM; (input ligand: none) 148 nM; under setting [1], 160 nM; under setting [2], 156 nM.

Take “GAUUCAGUGAUGUUGGAAGGCGAGCGGGAUACCAGCCGAGACUCAGGCCCUUGGCAGCCCACAUAUCCCAGGUAGAUAGUCGAUC [Same State - Theophylline A (Freestyle 9)]”: the “apparent KD of K4 kissing-loop reporter” value runs as follows: (input ligand: FMN 200 uM) 185 nM; (input ligand: arginine 13.2 mM) 118 nM; (input ligand: none) 170 nM; under setting [1], 165 nM; under setting [2], 160 nM.

On to “GCCGUACGCAUGGAUACCAGUCUUAGAGUGAUGUUCUAUACGAUUGCGCCUGGAUCAAUGGACCCUUGGCAGCCAUGCGUACGGC”, for which the “apparent KD of K4 kissing-loop reporter” value was 144 nM (input ligand: FMN 200 uM); 112 nM (input ligand: arginine 13.2 mM); 123 nM (input ligand: none); 114 nM under setting [1]; 124 nM under setting [2].

For “AACUCUCAGGCACGCGAGUGAUGUUCGCGCCGAGGACCGGUACGGCCGCCACUCGGGCCUGAGAGAGGUUAUCAAAGAUAGCCAA [whbob_SS_tryp_A]”, the “apparent KD of K4 kissing-loop reporter” value (input ligand: FMN 200 uM) came out at 306 nM; the “apparent KD of K4 kissing-loop reporter” value (input ligand: arginine 13.2 mM) amounted to 105 nM; the “apparent KD of K4 kissing-loop reporter” value (input ligand: none) turned out to be 137 nM; the “apparent KD of K4 kissing-loop reporter” value under setting [1] is 204 nM; the “apparent KD of K4 kissing-loop reporter” value under setting [2] came out at 250 nM.
